The conditions of the data set: Aspergillus oryzae (strain ATCC 42149 / RIB 40), Thermal, DSC, whole UniProt chain shown.

Here are results for one protein from FireProtDB (doi:10.1110/ps.8.7.1500).

B1: Guanyl-specific ribonuclease T1 wild type, P00651 (protein)
chain: MMYSKLLTLTTLLLPTALALPSLVERACDYTCGSNCYSSSDVSTAQAAGYQLHEDGETVGSNSYPHKYNNYEGFDFSVSSPYYEWPILSSGDVYSGGSPGADRVVFNENNQLAGVITHTGASGNNFVECT
In the case of B1, the unfolding free energy by setting is: (pH 2.8, 17.1 °C, glycine 10 mM) 5.6 kcal/mol; (pH 2.8, 21.1 °C, glycine 10 mM) 4.9 kcal/mol; (pH 2.8, 24.9 °C, glycine 10 mM) 4.3 kcal/mol; (pH 2.8, 25 °C, glycine 10 mM) 4.3 kcal/mol; (pH 2.8, 27.8 °C, glycine 10 mM) 3.7 kcal/mol; (pH 3, 25 °C, glycine 10 mM) 5.2 kcal/mol. For the same protein, the unfolding free energy was 6.7 kcal/mol (pH 3.6, 25 °C, acetate 10 mM); 7.2 kcal/mol (pH 4, 25 °C, acetate 10 mM); 8.1 kcal/mol (pH 5, 25 °C, acetate 10 mM); 8.5 kcal/mol (pH 6, 25 °C, MOPS or HEPES 10 mM). For the same protein, the Tm was 49.1 °C (pH 3, glycine 10 mM); 58.6 °C (pH 5, acetate 10 mM); 60.3 °C (pH 6, MOPS or HEPES 10 mM); 61.8 °C (pH 7, MOPS or HEPES 10 mM). The “unfolding enthalpy (calorimetric)” value runs as follows: (pH 3, glycine 10 mM) 82.7 kcal/mol; (pH 5, acetate 10 mM) 99.1 kcal/mol; (pH 6, MOPS or HEPES 10 mM) 101 kcal/mol; (pH 7, MOPS or HEPES 10 mM) 102 kcal/mol.

The Tm is the temperature at which the thermal transition is half complete.
